In the DeepSol protein solubility set:

test: soluble on expression in E. coli; label from the status in PepcDB or PDB records

Soluble on expression in E. coli, not soluble:
MGSDKIHHHHHHMHEHFMTPPPLSVTGKPAIRIGCAGWGIPPQHAALFPPGGGHLERYARLFDTVEIDSSFYRPHQHKTYVRWADTVPDSFRFWVKTPREITHQRRLLECEDSLLRFLEEISGLGYKLGGILVQLPPSLALDVPSAQAFFTLLRQHYAGVAACEPRHASWFSMQGEKLLQDFRLARVAADPAKFPTAGTPGGDTGFSYYRLHGAPEIYYSSYPEAYLRQLAHTLQASIGPAWCIFDNTARGGATANAWDIMRLLDKTMHQD
MGSDKIHHHHHHMHFVITGSLGHIGKPLAIQLSKEGHAVTVVSSNTERIKEIESIGAKAAIGSVEDPGFLTETFRGADAVFTMVPPNMNAADWKAWIAGIGKNYVAAIKESGVKHVVNLSSIGAHMVDKCGPVSGLSQVELAMDEMKGVNVHHLRAGYFYTNFLNSIGQIKNQGIITGNYMPDLKMVLVHPADIADIAARALKDESYLGRGFSYIASDEKTPAEIVTILGKATGRMDLKWVERTDKEEYDDLIAIGLPEEIAKNYTEMGAALRSGDMNADYFRNRPVMAGWRTFDSFMPEFIATYNA
MGSDKIHHHHHHMHFVMIFLDGFGLGGDRDNPIMAAHTPYIDELLGGHYLWGQERRIESEQLILIPLDASLDVTGIPQSATGQTTLWTGVNGAKALGFHLNAYPNEKLAEIIKEKSIFKQLADQGKKVTFANTFTSHYDEMIASGKRRHTASTLSALAGGVPLRRIEDLLQGKGVYQDMTNEILRELEQEADIPLITSYEAGKNLGRLALDYDFTLYEFFQTDVRGHKQDWEKAVALIEQIDGFIGGFMSVVRHEDVTWLLTSDHGNIEDFRVKGHTQNPVPALGWSSKPLEWPQWERLEDVTPGIVRMILGTREL
MGSDKIHHHHHHMHISLGPLLYCWQKQQVTDFYQQVAASQIPLVYLGEAVCSRRREFKWGDYLELAQMLKQAGKEVVISTLALIEAPSEYTELKRQVDNGEFMVEANDMAAVYLANEHKLPFVCGASINNYNRASLDILQRFGMQRFVMPVELSKAWLSQVIQQKPSFEVEVLGHGYLPLAHSARCFTARHKQLTKDHCETVCREYSKGLVAQTQEQQPLLRLNGIQTQSASCLDLRSEITTMAKMGVDVFRVSPSSLDCIATANALVDAINTPENAQHFAISSDANLERTQCNGYWFGEAGLAVHANP
MGSDKIHHHHHHMHLGKYIKKYRDTNNLSMAEFAKESGISKAYVSILEKNRDPRNGKEIIPSIPIIKKVSDTIGISFDDLLNSLDENQIVALNETKTEKNLTSSTLQKITSTSSQLEQPRQEKVLSFANEQLEEQNKVVSMFDRKVEETENYITDYVEGLVAAGLGAYQEDNLHMEVKLRADDVPDKYDTIAKVAGNSMEPLIQDNDLLFVKVSSQVDMNDIGIFQVNGKNFVKKLKRDYDGAWYLQSLNKSYEEIYLSENDNIRTIGEVVDIYREN
MGSDKIHHHHHHMHMQSPIQRRKSRQIHVGHVPVGGDAPIAVQSMTNTDTLDVDATVAQIRQLEAAGADIVRVSVPTMDAAEAFGQIKRQVSVPLVADIHFDYKIALRVAELGVDCLRINPGNIGREDRVRAVVDAARHHGIPIRIGVNAGSLEKDLQKKYGEPTPEALVESAMRHIEHLDRLDFQDFKVSVKASDVFMAVAAYRQLAQRIDQPLHLGITEAGGLRSGTVKSSIGLGLLLMEGIGDTIRVSLAADPVEEIKVGYDMLKSLRLRSKGINFIACPSCSRQNFDVIGTMNALEERLDDIMTPLDVSVIGCVVNGPGEAKESDIGLTGGDPANLVYIDGKPASKLRNDHLVDDLEALIRDKVREKEARERDTIAREA
MGSDKIHHHHHHMHWRGEYSCLSDSWRVSTQEDGGRLQMLTFRSARPEDEDALYAISLATGDAGQDATPLYNDGRMVGHIYSVPYLRLWPDAVFVAEDEEGVCGYIAGALDTVLHEQRLEQEWWPHLRALYPDPGGDPQTWDADQRRAHFIHHPRNTPSWLTDPFPAHIHMNLLPRTQGKGGGTRLLSRWLDMARQNNVYGIHLGASERNHAGMRFWETRGFKHLDSHETPGSVWFGMALE
MGSDKIHHHHHHMIDAFVRIGPLMDPASYPQWAQQLIEDCRESKRRVVEHEFYARLRDGQLKQSTIRQYLIGGWPVVEQFSLYMAHNLTKTRYGRHQGEDMARRWLMRNIRVELNHADYWVNWCQAHGVHLHELQAQEVPPELNGLNDWCWRVCATENLAISMAATNYAIEGATGEWSAVVCSTDTYAQGFPEEGRKRAMKWLKMHAQYDDAHPWEALEIICTLAGENPTLGLRTELRRAICKSYDCMFLFLERCMQLEGRQQGRMRPALAAG
